Data from patent US20260034246A1.

Legend:
[1] = molecular target: Cyno Complement C5 Protein (cynomolgous macaque)
[2] = molecular target: Human Complement C5 Protein (human) (UniProt P01031)
[3] = molecular target: Mouse Complement C5 Protein (mouse) (UniProt P06684)

recombinant C5 inhibitor (C5I) protein (from UniProt Q5YD59 19-168)
Kd [1]: 5.09 nM | Kd [2]: 10.2 nM | Kd [3]: 6.28 nM
